Measurements reported in patent publication US7842469B2, “Bioluminescence resonance energy transfer (BRET) systems and methods of use thereof” (Stanford University, priority 2005, dated 2010).
Numbering of substitutions follows the chain as printed. Names and notes keep the numbering of the source. Like-named read-outs stand apart in the source and are kept apart here.

B1: C124A/M185V: double mutant (C124A/M185V) Renilla Luciferase protein (SEQ ID NO: 2) (protein)
chain: MASKVYDPEQRKRMITGPQWWARCKQMNVLDSFINYYDSEKHAENAVIFLHGNAASSYLWRHVVPHIEPVARCIIPDLIGMGKSGKSGNGSYRLLDHYKYLTAWFELLNLPKKIIFVGHDWGAALAFHYSYEHQDKIKAIVHAESVVDVIESWDEWPDIEEDIALIKSEEGEKMVLENNFFVETVLPSKIMRKLEPEEFAAYLEPFKEKGEVRRPTLSWPREIPLVKGGKPDVVQIVRNYNAYLRASDDLPKMFIESDPGFFSNAIVEGAKKFPNTEFVKVKGLHFSQEDAPDEMGKYIKSFVERVLKNEQ
modifications: Chemically synthesized Renilla Luciferase
B2: Native RLuc: Luciferase from Renilla reniformis, native enzyme (SEQ ID NO: 1) (protein)
chain: B1 chain with A124C, V185M
modifications: Chemically synthesized Renilla Luciferase
B3: C124A: RLuc with the C124A mutation (C152A in Liu and Escher), with Myc epitope (protein)
chain: B1 chain with V185M
modifications: Myc epitope tag; Chemically synthesized Renilla Luciferase

Assays:
[1] = Luciferase activity of purified RLuc mutants (light output integrated over 10 s, luminometer); format: biochemical; settings: for Activity (relative to RLuc) bc / Activity (relative to RLuc) bdc / Activity (relative to RLuc) cp / Activity (relative to RLuc) n / Activity (relative to RLuc) native: relative to native enzyme
From the text: Luminometer Calibration: Light measurements were made using a Turner 20/20 and later a Turner 20/20n luminometer (Turner Designs, Sunnyvale, Calif.). The luminometers were calibrated to absolute units (photons/s) using the luminol light standard performed in dimethyl sulfoxide (DMSO). No corrections were applied for the spectral sensitivity of the luminometer, as the spectral peak of luminol chemiluminescence in DMSO (486 nm) is close to the spectral peak of Renilla Luciferase bioluminescence (482 nm).
Characterization of Renilla Luciferase Mutants: Luciferase activity was measured by adding 1 μl of sample (diluted as necessary in EB containing 1% HSA) to 100 μl room temperature 100 mM sodium phosphate buffer (pH 7), manually adding 1 μl of 0.5 μg/μl coelenterazine or analog, manually mixing, and reading for 10 s in a luminometer. The time between the addition of the luciferin and the start of measurement was approximately 4 s.

[2] = Serum stability in mouse serum at 37° C.; format: in vitro ADME; settings: mouse serum, 37° C., mono-exponential fit
Method: (§1) Serum stability measurements were done by mixing 0.5 μl dilute Luciferase with either 20 μl mouse serum or 50 μl rat serum (Equitech-Bio, Kerrville, Tex.) placing the sample in a 37° C. incubator, and removing aliquots for activity testing. To calculate serum half-lives, mono-exponential decay curves were fit to the serum stability data using a Nelder/Mead Simplex non-linear least squares minimization algorithm provided by the Octave numerical programming language. Emission spectra at ambient temperature were measured using a Triax 320 (Horiba Jobin Yvon, Edison, N.J.), which incorporates an optical grating device with a liquid N2 cooled CCD detector.

[3] = Serum stability in rat serum at 37° C.; format: in vitro ADME; settings: mono-exponential fit
Method: as §1

[4] = Bioluminescence emission spectra; format: physicochemical; settings: emission spectrum with native coelenterazine
Method: as §1

[5] = Quantum yield measurements; format: biochemical; settings: for Quantum Yield (%) bc: benzyl-coelenterazine; for Quantum Yield (%) bdc: bisdeoxycoelenterazine; for Quantum Yield (%) cp: coelenterazine-cp; for Quantum Yield (%) n: coelenterazine-n; for Quantum Yield (%) native: native coelenterazine
Method: For quantum yield measurements, separate 1 μl drops of protein (about 2 pm) and substrate (0.2 pm) were placed in a tube, 100 μl of 100 mM sodium phosphate buffer (pH 7) was injected by the luminometer to mix, and the total light output was integrated (generally 5-10 min). For coelenterazine-n, the protein amount was increased 10 fold and the acquisition time lengthened to insure the reaction approached completion.

[6] = test system: 293T cells; assay: Mammalian expression, transient transfection, light output in 293T cells; format: cell-based, human; settings: for Light output after transient transfection, 293T: pcDNA 3.1 CMV plasmid, 24 hours post transfection, coelenterazine
From the text: (§2) Mammalian Expression: In order to construct mammalian expression vectors, bacterial expression vectors containing the desired mutations were used as templates for PCR, with primers designed such that the N-terminal pelB sequence would be replaced by a methionine codon and a C-terminal stop codon would replace the Myc epitope and 6×His tag. The primers also contained appropriate NheI and HindIII restriction sites to allow insertion of the product into the pcDNA 3.1 plasmid (Invitrogen). The resultant plasmids were transiently transfected using SuperFect (Qiagen) into 293T or Chinese Hamster Ovarian (CHO, ATCC# CCL-61) cells growing in 24 well plates following the manufacturer's protocol. Twenty-four hours post transfection, 0.5 μg/well of coelenterazine was added, and the plates were imaged in an IVIS 50 imaging system (Xenogen, Alameda, Calif.).

[7] = test system: CHO cells; assay: Mammalian expression, transient transfection, light output in CHO cells; format: cell-based, Chinese Hamster; settings: pcDNA 3.1 CMV plasmid, 24 hours post transfection, coelenterazine
From the text: as §2

[8] = Kinetics (Michaelis-Menten fit to initial reaction velocity); format: biochemical; settings: for Km / kcat: coelenterazine 0.038 to 24 μM, formal standard error of fit
Method: Kinetics: Kinetics were assessed by injecting 100 μl of 100 mM sodium phosphate buffer (pH 7) containing coelenterazine onto 1 μl of protein (diluted appropriately in EB containing 1% HSA), and recording the light output for 20 min. The final coelenterazine concentrations tested were 118, 24, 4.7, 0.94, 0.19, and 0.038 μM. The final Luciferase concentrations were in the range of 1-7 pM. Coelenterazine absorbance was corrected for, although this was only significant for the highest concentration (10% attenuation). The values were converted from photons/s to molecules/s using the data from the quantum yield measurements, converted from flux units to mass units via integration, and processed using the kinetic curve fitting program Dynafit.

[9] = test system: 293T cells implanted in nude mice; assay: In vivo animal imaging of BRET^2 expression with cooled CCD camera; parameters: species or system mouse; settings: 3×10^6 transfected 293T cells s.c. in nude mice, DBC i.v.
Method: In Vivo Animal Imaging of BRET^2 Expression by Using a Cooled CCD Camera: 293T cells transiently transfected with either phRluc or pBRET^2 were harvested 24 hours post-transfection and resuspended in PBS. An aliquot of 3×10^6 cells each was injected s.c. in a set of 3 anesthetized (ketamine:xylazine 4:1) nude mice. One hour after cell injection, 20 μg/mouse of DBC diluted in D-PBS (100 μl total volume) was injected via tail vein (i.v.) and imaged immediately using the CCD camera. For the deep tissue signal detection experiment, 3×10^6 cells each were injected intravenously in another set of anesthetized nude mice, and a scan was performed half an hour later after 100 μg/mouse of DBC injection. For protein-protein interaction experiments, 293T cells were transiently transfected with either pBRET^2, pFKBP12-hRluc alone or co-transfected with pFKBP12-hRluc and pGFP^2-FRB in 1:1 DNA ratio. The cells were harvested 24 hours post-transfection and re-suspended in PBS after counting the cell number. An aliquot of 5×10^6 cells each was injected s.c. in a set of 6 nude mice. Three of these mice were kept aside, while the other 3 mice received single dose of 5 mg/kg rapamycin intra-peritonially (i.p.). After 7 hours, mice were injected intravenously with 25 μg of DBC/mouse and imaged using specified filters. […]

[10] = RLuc purified directly from Renilla reniformis; cited from earlier work
[11] = cited from earlier work
[12] = recombinant RLuc, hamster blood at 37° C.; cited from earlier work
[13] = test system: HT1080 fibro-sarcoma cells; assay: BRET vectors with RLuc mutants fused to GFP^2, CCD camera spectral imaging in cells; format: cell-based; settings: Coelenterazine400a; normalized with CMV-FLuc; P<0.01
Method: Methods: Three different mutations of RLuc, a single mutation C124A, a double mutation C124A/M185V, and a combination of eight mutations called RLuc8, were fused with GFP^2 and tested in HT1080 fibro-sarcoma cells by using CCD camera based spectral imaging. The new vectors were also tested in a small animal tumor model with implanted cells at various tissue depths.
FIG. 7 illustrates a comparative chart showing normalized donor (RLUC) and acceptor (GFP2) signal as measured from 293T cells transiently transfected with the marked plasmid vectors. BRET2 represents GFP2-Rluc, BRET-C represents GFP2-Rluc C124A, BRET-M represents Rluc C124A/M185V, BRET-Rl8 represents GFP2-Rluc8, RL represents Rluc, RL-C represents RLuc C124A, RL-M represents RLuc C124A/M185V, and Rl8 represents Rluc8. CCD camera scans were performed by adding Coelenterazine400a to the well plates. The cells were co-transfected with CMV-FLuc plasmid and scaned at the same time using D-Luciferin substrate for normalization purposes.
FIGS. 8A and 8B illustrate comparative assessments on signal quantification from HT1080 cells stably over-expressing GFP2-Rluc8 (8A) and GFP2-Rluc (8B) plasmid vectors. […] The line represents the calculated BRET ratios at each time point of measurements. […]

Row | Molecule | Activity (relative to RLuc) bc ([1]; benzyl-coelenterazine) | Activity (relative to RLuc) bdc ([1]; bisdeoxycoelenterazine) | Activity (relative to RLuc) cp ([1]; coelenterazine-cp) | Activity (relative to RLuc) n ([1]; coelenterazine-n) | Activity (relative to RLuc) native ([1]; native coelenterazine) | Serum τ1/2 (h) mouse [2] [h] | Serum τ1/2 (h) rat [3] [h] | Wavelength (nm) mean [4] [nm] | Wavelength (nm) peak [4] [nm] | Quantum Yield (%) bc [5] [%] | Quantum Yield (%) bdc [5] | Quantum Yield (%) cp [5] [%] | Quantum Yield (%) n [5] [%] | Quantum Yield (%) native [5] [%] | Light output after transient transfection, 293T [6] | Light output after transient transfection, CHO [7] | Km [8] [µM] | kcat [8] [s⁻¹] | also measured
1 | B1 | 3.0 | 44 | 15 | 7.8 | 3.4 | 5.7 | 3.7 | 500 | 485 | 6.3 ± 0.1 | (174.4 ± 6.7) × 10^−3% | 10.1 ± 0.2 | 9.4 ± 0.4 | 6.9 ± 0.3 | 174.1 ± 25.7 photons × 10^6/s/cm^2/steradian | 172.4 ± 8.4 photons × 10^6/s/cm^2/steradian |  |  | light output compared to M185V alone ([1]; bisdeoxycoelenterazine (Coelenterazine 400a)): 2 fold; increase in activity compared to the C124A mutant ([1]; in vitro): approximately 3 fold; increase in light relative to C124A after transient transfection into mammalian cells ([6]; mammalian cells (293T or CHO)): approximately 3 fold
2 | B2 |  |  |  |  |  | 0.9 | 0.4 | 497 | 482 | 3.2 ± 0.04 | (6.1 ± 0.9) × 10^−3% | 4.7 ± 0.03 | 6.1 ± 0.2 | 5.3 ± 0.1 | 22.5 ± 0.7 photons × 10^6/s/cm^2/steradian | 11.7 ± 1.2 photons × 10^6/s/cm^2/steradian | 2.9 ± 1 | 3.9 ± 0.4 | Activity (photons/s/mole enzyme) bc ([1]; benzyl-coelenterazine, 10 s integration, absolute units): 5.4 × 10^22 photons/s/mole enzyme; Activity (photons/s/mole enzyme) bdc ([1]; bisdeoxycoelenterazine, 10 s integration, absolute units (overestimation per footnote)): 5.8 × 10^19 photons/s/mole enzyme; Activity (photons/s/mole enzyme) cp ([1]; coelenterazine-cp, 10 s integration, absolute units): 1.7 × 10^22 photons/s/mole enzyme; Activity (photons/s/mole enzyme) n ([1]; coelenterazine-n, 10 s integration, absolute units): 8.3 × 10^21 photons/s/mole enzyme; Activity (photons/s/mole enzyme) native ([1]; native coelenterazine, 10 s integration, absolute units): (3.2 ± 0.3) × 10^22 photons/s/mole enzyme; Peak light flux ([8]; recombinant RLuc, 24 μM coelenterazine): 1.2±0.2×10^23 photons/s/mole enzyme; average radiance on GFP^2 filter, subcutaneous implants [9]: 0.342±0.031×10^3 photons/sec/cm^2/steradian; previously published emission peak [10]: 482 nm; reported peak light flux ([11]; RLuc purified directly from Renilla reniformis): 6.5×10^22 photons/s/mole enzyme; Km ([11]; in the presence of benzyl-coelenterazine, read-out: previously published Km): 2 µM; reported peak light flux ([11]; recombinant RLuc): 9×10^22 photons/s/mole enzyme; half-life in hamster blood [12]: 36 min
3 | B3 | 0.75 | 0.68 | 0.79 | 0.63 | 1.2 ± 0.1 | 7.1 ± 0.4 | 6.6 ± 0.5 | 498 | 482 | 3.6 ± 0.1 | (7.7 ± 0.5) × 10^−3% | 5.2 ± 0.1 | 6.4 ± 0.01 | 5.4 ± 0.3 | 62.8 ± 12.9 photons × 10^6/s/cm^2/steradian | 64.0 ± 4.9 photons × 10^6/s/cm^2/steradian | 2.7 ± 0.8 | 4.7 ± 0.4 | increase of normalized luciferase signal in comparison to cells expressing GFP^2-RLUC [13]: No significant improvements
